Results from patent US20030054411A1, “GPR motifs and uses thereof” (priority 2001, published 2003).

System: Giα3 in DDT1-MF2 cell lysates
Assay: GST-AGS3 interaction with endogenous Giα3 in cell lysates
Format: binding
Conditions: 30 uM GDP or GTPγS
Excerpt: A) Sequence of full length rat AGS3. The shaded and overlined sequences represent the tetratricopeptide repeat motif and a repeated segment of amino acids (I-IV), respectively, as discussed in the text. The underlined amino acids indicate the fragment (cDNA #53) isolated in the original yeast screen. B) The four repeat domains in the carboxyl terminus half of AGS3, human LGN, the predicted C. elegans protein and related sequences identified by the motif search program MEME were aligned and used to define a consensus sequence as described in the Examples. Right panel—Interaction of wild type AGS3 and AGS3 mutants with Giα2 in mammalian cell extracts. The AGS3 eDNA isolated in the yeast screen and shown to interact with Gα subunits (FIG. 2B) was modified by site-directed mutagenesis to disrupt conserved residues within the GPR motif. The number of the amino acids altered in the mutant constructs (F8R, Q15A and R23F) refers to their position in the sequence found in the left panel aligning the conserved domains. […] Giα subunits were detected on membrane transfers with the Giα3 antibody and Gβ was detected with an amino terminus antibody. […]
Immunoblotting and G-protein interaction assays. […] Bound proteins were detected by immunoblotting membrane transfers with specific antisera. […]

B1: AGS3: Activator of G-protein Signalling 3; bioactive 74 amino acid fragment isolated in yeast screen, tested as GST fusion (protein)
chain: MLIKYQSSRIDDQRCPPPDVLPRGPTMPDEDFFSLIQRVQAKRMDEQRVDLAGSPDQEASGLPDPRQQCPPGAS
modifications: left off: a dimerising Fc or GST
- nucleotide preference of interaction with Gα in crude cell lysate: preferentially interacted with GαGDP versus GTPγS
